Measured values from patent US20110129473A1 (LABORATORIOS SILANES S A DE C V, published 2011).

Molecular target: T1, recombinant human cytokine TNFα (human, UniProt P01375 77-233)
T1 construct: Recombinant human TNFα used for immunisation, panning and ELISA; also called human TNFα; rhTNF-α
Assay: phage display selection and ELISA on coated TNFα
Procedure: Phage selection rounds, amplification and recovery: There were performed 4 rounds of phage selection with TNFα 1 μg in PBS in an ELISA plate, sealed and incubating over night at 4° C., the cytokine is eliminated and blocking with 150 μl of PBS-BSA (3%), sealed and incubated 1 hr at 37° C.; discarding and adding 50 μl of phage-antibodies for each well, sealed and incubated with TBS-Tween 20 (0.05%) 150 for each well using the pipette to agitate. The solution is discarded and the phage-antibodies specific for TNFα are harvested after adding 50 μl per well of TBS-Trypsin [10 mg/ml]. The plate is sealed and incubated during 30 minutes, 37° C. The phage-antibodies are recovered and used to infect a culture of E. coli ER2537 (2 ml) electro-compentents (DO₆₀₀=1), during 15 minutes at room temperature. The selected phage-antibodies are amplified using serial dilutions incubating the transformants in SB media with carbencillin and helper phage VCSM13 with kanamycin. The phage-antibodies were recovered from the infected cultures of ER2537 cells by centrifugations using first PEG-8000 4% and NaCl 3, and PBS_BSA 1% (2 ml) filtering the supernatant with a 0.22 μm membrane, using 50 μl para to be selected according to the TNFα binding. […]

T1 sequence (P01375 77-233 limits assumed): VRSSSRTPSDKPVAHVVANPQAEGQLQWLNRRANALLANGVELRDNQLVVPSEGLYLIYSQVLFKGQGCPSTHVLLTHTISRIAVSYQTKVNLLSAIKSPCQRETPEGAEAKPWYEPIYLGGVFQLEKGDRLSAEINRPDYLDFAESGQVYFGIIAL

B1: vNAR clone 65 (anti-TNFα vNAR from Heterodontus francisci) (other)
chain: ASLDQTPRTATRETGESLTVNCVLVDANYGLYNTSWYRNNPGSTDREHITIGGRYVESVNKGAKSFSLQIKDMTVEDSGTYYCKARESDYNRVGIRDYKDYDGAGTVLTVN
notes: Shark IgNAR single variable domain (vNAR), expressed from pCOMb3X in E. coli; also called TNF65
B1: binds.
